Patent US20260200991A1

Target: Flag tagged HIV-1 Env with the 7aa Erbin PDZ domain binding sequence fused to its C-terminus (HIV-1)
Assay: cell-based or functional assay

Ebola VP40-Erbin PDZ fusion protein
normalized VLP ELISA (Env display on VLPs) (fold decrease): 2
